What all share (assay): other fluorescence titration
Assay [1] addresses recombinant RHOA^L57V (human) (UniProt P61586).
Assay [2] addresses recombinant RHOA^WT (human) (UniProt P61586).
Another assay deals with recombinant RHOA^WT (human, UniProt P61586 1-193).
A further assay concerns the target recombinant RHOA^L57V (human, UniProt P61586 1-193, L57V).

Chain of recombinant RHOA^WT (P61586 whole entry): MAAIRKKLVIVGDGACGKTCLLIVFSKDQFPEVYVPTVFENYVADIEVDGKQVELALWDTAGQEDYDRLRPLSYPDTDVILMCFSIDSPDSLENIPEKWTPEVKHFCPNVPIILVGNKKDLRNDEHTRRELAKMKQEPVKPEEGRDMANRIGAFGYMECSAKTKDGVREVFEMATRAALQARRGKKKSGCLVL
Chain of recombinant RHOA^WT (human) (P61586 whole entry): as above
Chain of recombinant RHOA^L57V (human) (P61586 whole entry L57V): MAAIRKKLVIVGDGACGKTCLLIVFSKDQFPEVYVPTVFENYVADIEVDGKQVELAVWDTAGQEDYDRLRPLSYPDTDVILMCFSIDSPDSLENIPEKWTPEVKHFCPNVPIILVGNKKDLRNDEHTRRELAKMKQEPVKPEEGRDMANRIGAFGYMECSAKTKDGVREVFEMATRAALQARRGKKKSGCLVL
Chain of recombinant RHOA^L57V (P61586 whole entry L57V): as above

For GST-ROCK1-RBD (domain or fragment), the values for the Kd in assay [1] and in assay [2] were 243 nM and 439 nM, respectively.

B1: GST-Rhotekin-RBD (domain or fragment, mouse, UniProt Q8C6B2-2 7-89, looked up)
chain: ILEDLNMLYIRQMALSLEDTELQRKLDHEIRMRDGACKLLAACSQREQALEATKSLLVCNSRILSYMGELQRRKEAQVLEKTG
On to B1, for which the equilibrium dissociation constant (Kd) in the assay with recombinant RHOA^WT was determined as 258 ± 15 nM; in the assay with recombinant RHOA^L57V, 220 ± 10 nM.

As usually defined, the Kd is the concentration at which binding is half-saturated.

The record behind these values is publication PMC10791543 (Science signaling, 2023).
